For the assay, the target named is SNARE complex reconstituted and anchored on supported phospholipid bilayers (rat | human, UniProt P32851;P60880-2;P63045).

We go through 2 molecules from paper PMC2587052 (Nature structural & molecular biology, 2008).

B1: synaptotagmin-1 C2AB fragment (residues 140-421), wild type (domain or fragment)
chain: EKLGKLQYSLDYDFQNNQLLVGIIQAAELPALDMGGTSDPYVKVFLLPDKKKKFETKVHRKTLNPVFNEQFTFKVPYSELGGKTLVMAVYDFDRFSKHDIIGEFKVPMNTVDFGHVTEEWRDLQSAEKEEQEKLGDICFSLRYVPTAGKLTVVILEAKNLKKMDVGGLSDPYVKIHLMQNGKRLKKKKTTIKKNTLNPYYNESFSFEVPFEQIQKVQVVVTVLDYDKIGKNDAIGKVFVGYNSTGAELRHWSDMLANPRRPIAQWHTLQVEEEVDAMLAVKK
In turn, B1 gave an EC50 of 12 nM. That is a double-digit nanomolar value.

B2: synaptotagmin-1 C2AB fragment (residues 140-421) R398Q,R399Q mutant (domain or fragment)
chain: EKLGKLQYSLDYDFQNNQLLVGIIQAAELPALDMGGTSDPYVKVFLLPDKKKKFETKVHRKTLNPVFNEQFTFKVPYSELGGKTLVMAVYDFDRFSKHDIIGEFKVPMNTVDFGHVTEEWRDLQSAEKEEQEKLGDICFSLRYVPTAGKLTVVILEAKNLKKMDVGGLSDPYVKIHLMQNGKRLKKKKTTIKKNTLNPYYNESFSFEVPFEQIQKVQVVVTVLDYDKIGKNDAIGKVFVGYNSTGAELRHWSDMLANPQQPIAQWHTLQVEEEVDAMLAVKK
As for B2, the midpoint of the response, the EC50, lay at 12 nM. This lies in the double-digit nanomolar range.

As usually defined, the EC50 is the concentration needed to bring the measured effect to its halfway point.
